In the Human Domainome abundance scans (Beltran et al. 2025):

B1: Max-interacting protein 1, residues 70 to 120; numbered along this chain, P50539 (parent)
chain: STHNELEKNRRAHLRLCLERLKVLIPLGPDCTRHTTLGLLNKAKAHIKKLE

Variants of: B1
Assay: abundance fitness (aPCA) (normalised: wild type 0, dead -1); higher = more abundant; growth selection in yeast, the domain comes from the species named
Settings: Homo sapiens

Abundance fitness, by site and new letter:
V23: R 0.316, I -0.218, Q 0.123, D -0.127, M 0.064, T 0.274
N41: A -0.218, W -0.83, S -0.09, P -0.44, C -0.237, K 0.109
C17: A -0.193, Q -0.635, I -0.617, L 0.101, T -0.666, S -0.641, G -0.402
H34: P -0.318, C -0.063, K 0.39, V 0.019, I -0.225, G 0.114
N4: V -0.404, Q 0.041, R -0.255, T 0.135, P -0.276, C -0.33, A -0.258, Y -0.547, H -0.381, D -0.134
G38: R -0.009, E -0.185, V -0.242, W -0.265, K 0.081, F -0.584
T35: S 0.025, E -0.508, V 0.057, D -0.377, Y 0.279
R15: D -0.749, E -0.476, N -0.777, F -0.269, Y -0.941, A -0.211, S -0.231, V -0.678, Q -0.369, W -0.27
L21: S -0.915, R -1.05, E -0.931, F -0.398, H -0.335, A -0.547, T -0.832, G -0.957, M -0.358, K -0.739
K22: G -0.611, I -1.21, F -0.759, M -0.753, H -0.651, T -0.835, V -0.926, S -0.536, D -0.83
A12: Y -0.932, H -0.666, K -0.048, N -0.185, C -0.426, T 0.124, P -0.102
R10: I -0.289, S -0.217, A 0.038, L -0.076, C -0.071, W 0.163
G28: Y 0.133, V 0.273, S 0.003, K 0.362, W 0.199, L -0.142, C -0.155, H -0.147
C31: H 0.308, S 0.168, D -0.136, E -0.206, T -0.034, G 0.027, V 0.145, N 0.185, L 0
I25: G -0.26, L -0.172, F -0.141, M -0.228, N 0.169
E5: T -0.006, Q -0.193, G -0.244, N 0.282
T32: L 0.374, G 0.012, W 0.033, P -0.303, C 0.268, M 0.546, R -0.137, S -0.109
K49: F -0.045, C -0.62
A45: G -0.447, V -0.045, I 0.043, Q 0.085, T -0.027, W -0.483, E -0.136, S -0.262, N -0.023
D30: W 0.034, T 0.128, N 0.229, G 0.178, C -0.07, M 0.118, A 0.095, H 0.031, F 0.036, E -0.134
E19: H -0.236, F -0.623, Q -0.185, I -0.43, K -0.467, M -0.678, P -0.358, R -0.513
E51: T 0.462, P -0.089, C 0.207, K 0.891, A 0.495, Q -0.198, R 0.452, F 0.332
H3: W -0.549, Y -0.078, N -0.162, G 0.197, E -0.047
K48: V -0.846, F -0.093, S -0.648, N -0.675, C -0.311, H -0.74, D -0.65, L -0.802
E7: S 0.06, L -0.109, G -0.099, W -0.004, F -0.273, R -0.161, Q -0.169, A -0.263, Y -0.205, D -0.184, K 0.061
T2: Q 0.161, I -0.24, L -0.519, Y -0.088, S -0.414, K 0.002, H -0.1, N 0.128, W -0.836
S1: M -0.797, A -0.6, E -0.48, Y -0.444, H -0.285, N -0.158, D -0.475
R20: Y -0.884, H -0.726, V -0.797, G -0.817, S -0.576, Q -0.405, P -0.753, F -0.971
H46: N -0.394, S 0.237, I -0.26, T 0.154
L16: V -0.058, N -0.069, M -0.001
L27: Q -0.149, Y -0.39, G 0.18, T 0.074, P 0.359, D -0.512, S 0.166, H -0.146, M -0.031, V -0.009, A -0.006
R33: L -0.438, E -0.667, W -0.075
L50: D -0.423, G -0.317, N -0.617
I47: L 0.027, G -0.539, V -0.312, D -0.761, C -0.524, E -0.776
L14: Y 0.111, K -0.625, F 0.096, V -0.356, S -0.299
L40: S -0.91, D -1.13, W 0.323, A -0.553, T -0.68, Q -0.933, F 0.033
H13: Y -0.04, S -0.085, I -0.447, D -0.604
R11: C -0.256, H -0.13, K 0.223, Q -0.281, P -0.105, T -0.352, M -0.261, L -0.062, D -0.19, W -0.257
L37: H -0.399, S 0.06, V -0.023, T 0.042, M -0.124
K42: I -0.284, F -0.256, D -0.992, T -0.196, R -0.069
L24: P -0.938, R 0.013, S -0.391, C -0.013, A -0.329, H -0.139, F -0.277
L6: V -0.005, G 0.203, T -0.025, Q 0.18, D -0.066
L18: K -0.515, T -0.824, S -0.455, R -0.652
P26: C -0.157, K 0.441, I -1.18, E -0.138, Y -0.626, D -0.327, M 0.074, N 0.063, V -0.628, Q 0.144
T36: C 0.085, Q -0.199, R -0.19, H -0.176, I -0.028, N -0.183, L -0.106, A 0.138, S -0.132
A43: G -0.583, P -0.53, C -0.133, I -0.2, K -0.939, H -0.828
K8: C -0.278, H -0.205, F -0.236, D -0.568, E -0.291, P -0.451, A -0.386, M -0.511, Y -0.619
L39: M -0.194, A -0.704, S -0.707, Y -0.555, T -0.535, K -0.881
P29: Y 0.256, E -0.296, C 0.181, H 0.262, M 0.282
